{"source": "paper PMC7566566", "binders": {"B1": {"name": "tRNASer (TT_RS06780) (structured_RNA)", "RNA": "GGAGAGGUGGCCGAGUGGUCGAAGGCGGCACCCUGCUAAGGUGUUGCACCGGGAAAACCGGUGCCGCGGGUUCGAAUCCCGCCCUCUCCGCCA"}, "B2": {"name": "tRNAPro (TT_RS09670) (structured_RNA)", "RNA": "CGGGGAGUAGCGCAGCCUGGUAGCGCACACGCUUGGGGUGCGUGGGGUCGUCGGUUCAAAUCCGGCCUCCCCGACCA"}, "B3": {"name": "tRNAPro (TT_RS02830) (structured_RNA)", "RNA": "CGGGGAGUAGCGCAGCCCGGUAGCGCACCUCGUUCGGGACGAGGGGGUCGCUGGUUCAAAUCCAGUCUCCCCGACCA"}, "B4": {"name": "tRNAPro (TT_RS01350) (structured_RNA)", "RNA": "CGGGGCGUAGCGCAGGCCGGUAGCGCACCUGCUUUGGGAGCAGGGGGUCGCCCGUUCAAAUCGGGCCGCCCCGACCA"}, "B5": {"name": "tRNATyr (TT_RS08805) (structured_RNA)", "RNA": "GGGCAGGUGCCCGAGCGGCCAAAGGGGACGGUCUGUAAAACCGUUGGCGUAUGCCUUCGCUGGUUCGAAUCCAGCCCUGCCCACCA"}, "B6": {"name": "tRNAGly (TT_RS08190) (structured_RNA)", "RNA": "GCGGGAGUAGCUCAGUCGGUAGAGCACGACCUUGCCAAGGUCGGGGUCGCGGGUUCAAGUCCCGUCUCCCGCUCCA"}}, "data": [{"molecular_target": "T1, Hera (Thermus thermophilus, UniProt O07897 1-510)", "T1 sequence": "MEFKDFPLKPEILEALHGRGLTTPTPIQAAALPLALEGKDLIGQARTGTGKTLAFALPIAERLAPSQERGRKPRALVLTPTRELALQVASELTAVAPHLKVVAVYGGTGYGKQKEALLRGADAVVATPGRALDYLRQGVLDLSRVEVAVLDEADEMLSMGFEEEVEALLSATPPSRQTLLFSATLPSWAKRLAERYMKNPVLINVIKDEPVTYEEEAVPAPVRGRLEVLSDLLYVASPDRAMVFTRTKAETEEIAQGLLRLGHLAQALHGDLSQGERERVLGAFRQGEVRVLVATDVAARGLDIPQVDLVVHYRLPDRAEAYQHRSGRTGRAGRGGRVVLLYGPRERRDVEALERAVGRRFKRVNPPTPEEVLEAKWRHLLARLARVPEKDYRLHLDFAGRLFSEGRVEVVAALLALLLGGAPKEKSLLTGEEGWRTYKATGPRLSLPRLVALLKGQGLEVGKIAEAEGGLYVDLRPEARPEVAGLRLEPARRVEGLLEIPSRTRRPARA", "assay": "competition", "values": [{"binder": "GCCAAGCCGGGCCUGGAC (ssRNA)", "note": "[RNA 1638]", "binding result": "no binding"}, {"binder": "CUCGUGGCCCUGGCGAGGAGGCUCGUGGAGGAGUAC (ssRNA)", "note": "[RNA 1640]", "binding result": "no binding"}]}, {"molecular_target": "T1, Hera", "assay": "competition", "remark": "another data set of the same source", "values": [{"binder": "CCUGCACGUUCCCACCGCCUGGGU (ssRNA)", "note": "[RNA 1654]", "binding result": "no binding"}]}, {"molecular_target": "T1, Hera", "assay": "competition", "remark": "another data set of the same source", "units": {"Kd": "nM"}, "values": [{"binder": "UUUGGGGCUGCGGGGCUGGACCCCACGGGCGCCGCCACCC (ssRNA)", "note": "[RNA 13]", "binding result": "binds"}, {"binder": "B1", "Kd": 60}, {"binder": "B2", "Kd": 400}, {"binder": "B3", "Kd": 600}, {"binder": "CUGGCUUGCCCGGGAGAUCCUGGGCUACCCCGA (ssRNA)", "note": "[RNA 9]", "binding result": "binds"}, {"binder": "B4", "Kd": 1400}, {"binder": "AGGTCCCAA (ssDNA)", "note": "[9mer DNA]", "binding result": "no binding"}, {"binder": "AAAAAAAAAAAAAAAAAAAAAAAAAAAAAAAAAAAAAAAAAAAAAAAAAA (ssRNA)", "note": "[50A]", "binding result": "no binding"}, {"binder": "B5", "Kd": 400}, {"binder": "B6", "Kd": 400}, {"binder": "UAGGGGCGUGUGGGCCCACCCGGCGUGGCGCUGGCUCCACC (ssRNA)", "note": "[RNA 2]", "binding result": "binds"}, {"binder": "UUUUUUUUUUUUUUUUUUUUUUUUUUUUUUUUUUUUUUUUUUUUUUUUUU (ssRNA)", "note": "[50U]", "Kd": "240 ± 50"}]}]}
